Data: paper PMC10416611, “Overexpression of AHL proteins enhances root hair production by altering the transcription of RHD6‐downstream genes”

T1: MBP-AHL28 (Arabidopsis thaliana, UniProt Q9M9R4 1-206)
T1 sequence: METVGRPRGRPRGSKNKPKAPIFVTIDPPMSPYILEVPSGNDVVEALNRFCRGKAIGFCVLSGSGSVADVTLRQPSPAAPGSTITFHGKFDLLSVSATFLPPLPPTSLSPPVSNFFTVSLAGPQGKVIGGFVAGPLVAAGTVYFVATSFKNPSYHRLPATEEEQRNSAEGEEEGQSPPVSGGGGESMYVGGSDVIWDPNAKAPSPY

B1: COW1 promoter probe (dsDNA)
DNA 1: TTTCTCTCATATTTAATTTATTTACTTAGAAA
DNA 2: TTTCTAAGTAAATAAATTAAATATGAGAGAAA
B2: PRP3 promoter probe (dsDNA)
DNA 1: GTCCAAATATTTATATTATAAGATACATTTTAATATTTAATTATGATTTAGTAGA
DNA 2: TCTACTAAATCATAATTAAATATTAAAATGTATCTTATAATATAAATATTTGGAC

Key:
MBP-AHL28 = target: T1, MBP-AHL28; experiment: EMSA; 1.5 ug protein, 1 uM probe; reduced by unlabeled probe; EMSA as in Sun et al. 2016; buffer, salt, pH and temperature not given; FAM-labeled probe 1 uM (Fig. S6); conditions: protein: recombinant; tags: N-terminal MBP; label: FAM; blunt
MBP-AHL17-His = MBP-AHL17-His (Arabidopsis thaliana, UniProt Q9LTA2 1-276); experiment: EMSA; reduced by unlabeled probe; EMSA as in Sun et al. 2016; buffer, salt, pH and temperature not given; FAM-labeled probe 1 uM (Fig. S6); conditions: protein: recombinant; tags: N-terminal MBP; C-terminal 6xHis; label: FAM; blunt

Row | Binder | binding result (MBP-AHL28) | binding result (MBP-AHL17-His)
1 | B1 | binds | binds
2 | B2 | binds | binds
